Measured values as given in patent publication US20190269793.

Legend:
Vaccinia virus K3 = target: T1, Vaccinia virus K3
T1 chain: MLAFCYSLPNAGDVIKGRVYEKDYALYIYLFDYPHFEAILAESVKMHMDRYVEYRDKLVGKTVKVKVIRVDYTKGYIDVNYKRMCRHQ

Vaccinia virus E3 = target: T2, Vaccinia virus E3
T2 chain: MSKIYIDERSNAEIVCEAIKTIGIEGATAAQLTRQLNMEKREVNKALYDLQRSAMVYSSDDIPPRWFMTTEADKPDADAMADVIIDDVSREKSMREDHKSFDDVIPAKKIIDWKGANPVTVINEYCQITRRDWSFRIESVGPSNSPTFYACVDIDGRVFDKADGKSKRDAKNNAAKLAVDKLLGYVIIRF

B1: RNA-dependent protein kinase (PKR) (protein)
chain: AGDLSAGFFMEELNTYRQKQGVVLKYQELPNSGPPHDRRFTFQVIIDGREFPEGEGRSKKEAKNAAAKLAVEILNKEKKAVSPLLLTTTNSSEGLSMGNYIGLINRIAQKKRLTVNYEQCASGVHGPEGFHYKCKMGQKEYSIGTGSTKQEAKQLAAKLAYLQILSEETSVKSDYLSSGSFATTCESQSNSLVTSTLASESSSEGDFSADTSEINSNSDSLNSSSLLMNGLRNNQRKAKRSLAPRFDLPDMKETKYTVDKRFGMDFKEIELIGSGGFGQVFKAKHRIDGKTYVIKRVKYNNEKAEREVKALAKLDHVNIVHYNGCWDGFDYDPETSDDSLESSDYDPENSKNSSRSKTKCLFIQMEFCDKGTLEQWIEKRRGEKLDKVLALELFEQITKGVDYIHSKKLIHRDLKPSNIFLVDTKQVKIGDFGLVTSLKNDGKRTRSKGTLRYMSPEQISSQDYGKEVDLYALGLILAELLHVCDTAFETSKFFTDLRDGIISDIFDKKEKTLLQKLLSKKPEDRPNTSEILRTLTVWKKSPEKNERHTC
PKR autophosphorylation (Western blot with phospho-PKR specific antibody) (Vaccinia virus K3): E3 and K3 reduce PKR autophosphorylation | PKR autophosphorylation (Western blot with phospho-PKR specific antibody) (Vaccinia virus E3): E3 and K3 reduce PKR autophosphorylation
